Results on five molecules are retold here after patent US20240279345A1, “ALPHA 5 BETA 1 INTEGRIN BINDING AGENTS AND USES THEREOF” (PASITHEA THERAPEUTICS CORP., priority 2021, published 2024).

Assay [1] concerns the target T1, recombinant mouse α5β1 (rm-α5β1) (Mus musculus, UniProt P09055+P11688).
T1 construct: purchased R&D Systems 7728-A5
The assay can be described thus: Plate-based ELISA cross-reactivity to rm-α5β1. Type of assay: binding. The following applies: hybridoma supernatant diluted 1:10; plate coated with rm-α5β1. The method, then: (§1) The 249 positive hybridoma supernatants selected as described in Example 1 were screened for reactivity to rh-α5β1 in a plate-based ELISA. Immulon4 HBX ELISA 96-well plates (Thermo Fisher Scientific, Waltham, MA, cat. no. 3855) were coated with rh-α5β1 (R&D Systems, Minneapolis, MN 55413, cat. no. 3230-A5), at 1 μg/mL in PBS supplemented with 0.5 mM MgCl2, MnCl2 and CaCl2 and incubated overnight at 4° C. Plates were washed 3 times with Wash Buffer (1× Tris Buffered Saline containing 0.05% Tween20), blocked with 2% BSA in 1×TBS (made from 10× Thermo Scientific Blocker BSA (10×) in TBS; Thermo Fisher Scientific, Waltham, MA, cat. no. 37520) for 2 hours at room temperature (RT) then incubated with hybridoma supernatants diluted 1:10 with Standard Diluent (2% BSA, 1×TBS, 0.05% Tween20). Following a 1 hour incubation at RT, wells were washed 3 times, incubated with biotinylated goat anti-mouse secondary antibody at 1:8000 dilution (Invitrogen, Carlsbad, CA, cat. no. 62-6540) for 1 hour, washed 3 times, then incubated for 30 minutes with poly-HRP Streptavidin (Thermo Fisher Scientific, Waltham, MA, cat. no. N200), washed 4 times, incubated with TMB (Thermo Fisher Scientific, Waltham, MA, cat. no. N301) for 5-10 minutes, followed by addition of ELISA Stop Solution (Invitrogen, Carlsbad, CA, cat. no. SS04). Absorbance 450 nm was measured.
In addition, hybridomas were tested for cross-reactivity to recombinant mouse α5β1 (rm-α5β1; R&D Systems, Minneapolis, MN 55413; cat. no. 7728-A5) using the same protocol as above except that the plates were coated with rm-α5β1.
A general note: In an ELISA, binding on a coated surface is turned into a signal by an enzyme label.

A further assay deals with rh-α5β1 (Homo sapiens, UniProt P05556+P08648). As to the kind of experiment: Competition binding studies by Biolayer Interferometry (epitope groups). The following applies: for Response (nm) / % Response: secondary mAb pre-mixed with 20 nM rh-α5β1; for % Response: relative to antigen alone. The method, then:
Epitope analysis via competition binding studies was performed using Biolayer Interferometry (BLI) on the 6 antibodies selected as described in Example 5. The anti-α5β1 FN blocking antibodies A2-7A05, C-14D12 and A-15B08 were immobilized on sensors and incubated with each of the other antibodies that had been preincubated with rh-α5β1, to determine whether this antibody-antigen association prevents or allows binding to the antibody on the sensor. The magnitude of observed binding (response) was compared to binding of antigen alone under the same conditions. If the overall response was greater than 120% of antigen binding alone, then the antibodies can pair with each other. If response was less than 80% of response of antigen binding alone, then the antibodies block each other. The protocol was as follows: preincubate the panel of antibodies with antigen (1 hr). Equilibrate the sensor (30 seconds (s))-->Load lead Ab on the sensor (700s)--->Quench (480s)--->Read baseline (480s)-->measure preincubated Ab+Ag association with loaded sensor (600s).
In general terms: In BLI a coated tip is dipped into the sample, and binding shifts an interference pattern.

For assay [2], the target named is T2, recombinant human α5β1 integrin (rh-α5β1) (Homo sapiens, UniProt P05556+P08648).
T2 construct: purchased R&D Systems 3230-A5
T2 sequence (P08648 42-894 limits assumed): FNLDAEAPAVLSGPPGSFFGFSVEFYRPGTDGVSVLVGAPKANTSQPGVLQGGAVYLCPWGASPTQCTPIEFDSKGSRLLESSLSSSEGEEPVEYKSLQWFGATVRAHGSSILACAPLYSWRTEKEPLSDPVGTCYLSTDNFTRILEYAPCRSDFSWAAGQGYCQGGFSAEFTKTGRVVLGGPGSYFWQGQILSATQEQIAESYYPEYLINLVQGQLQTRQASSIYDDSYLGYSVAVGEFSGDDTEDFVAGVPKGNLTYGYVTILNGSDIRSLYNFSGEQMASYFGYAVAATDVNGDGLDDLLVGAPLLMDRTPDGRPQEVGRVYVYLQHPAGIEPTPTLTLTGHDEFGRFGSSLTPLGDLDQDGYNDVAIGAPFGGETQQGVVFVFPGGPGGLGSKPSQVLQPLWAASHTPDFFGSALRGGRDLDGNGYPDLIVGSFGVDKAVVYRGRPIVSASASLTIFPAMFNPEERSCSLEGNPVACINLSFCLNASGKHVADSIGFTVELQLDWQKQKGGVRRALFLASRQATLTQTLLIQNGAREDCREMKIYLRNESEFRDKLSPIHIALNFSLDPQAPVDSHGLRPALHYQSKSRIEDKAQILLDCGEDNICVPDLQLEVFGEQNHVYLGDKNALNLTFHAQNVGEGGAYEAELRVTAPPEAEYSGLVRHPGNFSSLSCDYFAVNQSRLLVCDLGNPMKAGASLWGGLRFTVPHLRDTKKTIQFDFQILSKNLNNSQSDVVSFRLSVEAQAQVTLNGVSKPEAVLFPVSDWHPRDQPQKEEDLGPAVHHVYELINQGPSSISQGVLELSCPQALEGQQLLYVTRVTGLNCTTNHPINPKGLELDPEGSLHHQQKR
T2 sequence (P08648 895-995 limits assumed): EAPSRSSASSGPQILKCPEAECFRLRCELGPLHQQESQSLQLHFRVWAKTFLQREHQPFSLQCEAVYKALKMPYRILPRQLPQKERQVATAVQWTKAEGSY
T2 sequence (P05556 21-728 limits assumed): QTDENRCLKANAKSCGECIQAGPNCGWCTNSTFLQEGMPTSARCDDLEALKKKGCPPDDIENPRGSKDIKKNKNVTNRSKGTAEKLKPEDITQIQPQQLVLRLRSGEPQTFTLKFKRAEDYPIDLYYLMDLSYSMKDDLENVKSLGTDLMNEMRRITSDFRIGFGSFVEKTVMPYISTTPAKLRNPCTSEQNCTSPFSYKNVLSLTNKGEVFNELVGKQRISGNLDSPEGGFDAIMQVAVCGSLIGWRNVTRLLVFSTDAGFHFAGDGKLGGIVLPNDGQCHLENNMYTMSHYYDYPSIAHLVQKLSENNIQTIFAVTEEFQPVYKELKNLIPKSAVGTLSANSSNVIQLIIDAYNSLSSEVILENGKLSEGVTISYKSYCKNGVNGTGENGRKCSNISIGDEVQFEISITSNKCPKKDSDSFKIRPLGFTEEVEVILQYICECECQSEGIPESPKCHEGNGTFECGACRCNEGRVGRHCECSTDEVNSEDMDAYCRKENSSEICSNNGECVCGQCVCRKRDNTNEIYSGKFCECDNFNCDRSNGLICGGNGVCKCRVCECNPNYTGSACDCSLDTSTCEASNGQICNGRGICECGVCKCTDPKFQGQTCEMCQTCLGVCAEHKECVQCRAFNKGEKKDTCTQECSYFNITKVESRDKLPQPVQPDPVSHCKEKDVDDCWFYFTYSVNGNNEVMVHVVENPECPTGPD
As to the kind of experiment: Plate-based ELISA reactivity to rh-α5β1. It counts as binding. The following applies: selected for further characterization among α5 specific hybridomas (28 selected). The method, then: as §1

The next assay has as its target T3, rh-α4β1 (Homo sapiens, UniProt P05556+P13612).
T3 construct: purchased R&D Systems 3230-A5 & 5668-A4
The assay can be described thus: Plate-based ELISA reactivity to rh-α4β1 (α5 subunit specificity). Type of assay: binding. The following applies: hybridoma supernatant diluted 1:10; plate coated with rh-α4β1. The procedure:
as §1
In parallel the 249 hybridomas were screened for specificity to the human α5 subunit by testing for reactivity to rh-α4β1 (R&D Systems, Minneapolis, MN 55413; cat. no. 3230-A5 & 5668-A4). Any hybridoma that reacted to both rh-α4β1 and rh-α5β1 is likely to be β1 subunit specific and not considered α5 specific. Using the protocol described above, 29 hybridoma supernatants reacted strongly (>1.0 Absorbance 450 nm) with rh-α4β1 and were not considered to be α5 specific.

Assay [3] deals with T4, binding of α5β1 integrin to fibronectin (FN) (Homo sapiens, UniProt P05556+P08648).
T4 construct: purchased Acro Biosystems IT1-H52W5
T4 sequence (P08648 42-894 limits assumed): as the sequence (P08648 42-894 limits assumed) above
T4 sequence (P08648 895-995 limits assumed): as the sequence (P08648 895-995 limits assumed) above
T4 sequence (P05556 21-728 limits assumed): as the sequence (P05556 21-728 limits assumed) above
As to the kind of experiment: Quantitative FN inhibition (FN-blocking) assay in ELISA format. It counts as biochemical. The following applies: by ELISA. From the text: To determine whether the 9 unique hybridoma clones selected as described in Example 4 were able to inhibit the binding of α5β1 integrin to fibronectin (FN), the antibodies were first purified from hybridoma supernatants by Protein A chromatography, protein concentrations measured by BCA assay (Pierce™ BCA Protein Assay Kit; Thermo Fisher Scientific, Waltham, MA, cat. no. 23225) and then tested in a quantitative FN inhibition assay in an ELISA format.
Immulon4 HBX ELISA 96-well plates were coated with FN by incubation overnight at 4° C. with 2.5 μg/mL human FN (R&D Systems, Minneapolis, MN 55413, cat. no. 1918-FN) in 1×PBS (0.01M phosphate buffer and 0.154M NaCl, pH 7.4). Plates were then washed 3 times with Wash Buffer (1× Tris Buffered Saline containing 0.05% Tween20), blocked with 2% BSA in 1×TBS for 2 hours at room temperature (RT). Antibodies were diluted in Standard Diluent (2% BSA, 1×TBS, 0.05% Tween20) containing 0.1 μg/mL rh-α5β1-6×His tagged protein (Acro Biosystems, Newark, DE, cat. no. IT1-H52W5), to generate an 11 point 1:3 antibody dilution series ranging from 10,000 ng/mL to 0.17 ng/mL. Isotype control antibody (Control Ab; Ms IgG2a EMD Millipore Corp, Billerica, MA, cat. no. PP102) was used to normalize data across different assay runs. For the assays, 100 uL of the antibody dilution series/His-tagged-α5β1 mixture was added to the wells after the blocking solution was removed and wells were washed 3 times. Following 1 hour at RT, the wells were washed 3 times, incubated with biotinylated Anti-6×His-Tag Ab (Invitrogen, Carlsbad, CA, cat. no. MAI-21315-BTIN) at 1:1000 in Standard Diluent for 1 hour, washed 3 times, incubated for 30 minutes with poly-HRP Streptavidin (Thermo Fisher Scientific, Waltham, MA, cat. no. N200), washed 4 times, incubated with TMB substrate (Thermo Fisher Scientific, Waltham, MA, cat. no. N301) for 2-5 minutes, followed by addition of ELISA Stop Solution (Invitrogen, Carlsbad, CA, cat. no. SS04). Absorbance 450 nm was measured. Data points were normalized to the isotype Control Ab values at each concentration and reported as % Absorbance 450 nm normalized to Control Ab. Non-linear regression analysis was used to fit curves (4-parameter) to the data using GraphPad Prism version 9.0.2 (GraphPad Software, LLC, San Diego, CA).
Freeze-thaw stability was tested on a small aliquot of each chimera antibody by overnight storage at −80° C. followed by thaw on ice, repeated three times. […] IC50s were calculated by non-linear regression analysis curve-fitting (4-parameter) of the ELISA data (FIG. 5) using GraphPad Prism version 9.0.2 (GraphPad Software, LLC, San Diego, CA). […]

Substitutions are numbered along the chain they refer to. In names and notes the source's numbering stands.

T3 sequence (P13612 34-977 limits assumed): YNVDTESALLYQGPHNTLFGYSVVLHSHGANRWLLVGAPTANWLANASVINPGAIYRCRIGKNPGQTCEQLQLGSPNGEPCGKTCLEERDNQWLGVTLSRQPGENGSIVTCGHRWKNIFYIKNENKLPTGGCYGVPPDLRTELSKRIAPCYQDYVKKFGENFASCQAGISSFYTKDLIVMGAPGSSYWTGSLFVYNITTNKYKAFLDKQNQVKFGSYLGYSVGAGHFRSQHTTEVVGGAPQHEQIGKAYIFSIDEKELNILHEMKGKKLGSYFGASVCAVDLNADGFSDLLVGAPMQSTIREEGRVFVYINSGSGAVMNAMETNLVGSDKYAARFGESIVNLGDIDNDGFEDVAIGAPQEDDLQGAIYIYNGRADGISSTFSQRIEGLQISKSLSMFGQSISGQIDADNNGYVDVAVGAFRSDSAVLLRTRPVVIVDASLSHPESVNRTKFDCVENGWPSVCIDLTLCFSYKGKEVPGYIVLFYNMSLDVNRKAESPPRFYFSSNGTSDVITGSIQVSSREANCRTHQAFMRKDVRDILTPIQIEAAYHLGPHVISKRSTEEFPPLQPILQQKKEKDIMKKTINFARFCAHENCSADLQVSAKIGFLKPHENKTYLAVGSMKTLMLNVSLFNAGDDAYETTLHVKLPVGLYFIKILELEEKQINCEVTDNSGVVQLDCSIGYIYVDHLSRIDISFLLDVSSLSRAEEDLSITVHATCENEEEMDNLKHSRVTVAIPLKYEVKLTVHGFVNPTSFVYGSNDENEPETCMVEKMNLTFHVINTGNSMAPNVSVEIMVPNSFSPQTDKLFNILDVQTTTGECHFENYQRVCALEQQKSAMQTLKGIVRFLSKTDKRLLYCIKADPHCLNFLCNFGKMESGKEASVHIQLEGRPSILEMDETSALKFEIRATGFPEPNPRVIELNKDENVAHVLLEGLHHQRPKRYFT
T3 sequence (P05556 21-728 limits assumed): as the sequence (P05556 21-728 limits assumed) above
rh-α5β1, sequence (P08648 42-894 limits assumed): as the sequence (P08648 42-894 limits assumed) above
rh-α5β1, sequence (P08648 895-995 limits assumed): as the sequence (P08648 895-995 limits assumed) above
rh-α5β1, sequence (P05556 21-728 limits assumed): as the sequence (P05556 21-728 limits assumed) above
T1 sequence (P11688 45-898 limits assumed): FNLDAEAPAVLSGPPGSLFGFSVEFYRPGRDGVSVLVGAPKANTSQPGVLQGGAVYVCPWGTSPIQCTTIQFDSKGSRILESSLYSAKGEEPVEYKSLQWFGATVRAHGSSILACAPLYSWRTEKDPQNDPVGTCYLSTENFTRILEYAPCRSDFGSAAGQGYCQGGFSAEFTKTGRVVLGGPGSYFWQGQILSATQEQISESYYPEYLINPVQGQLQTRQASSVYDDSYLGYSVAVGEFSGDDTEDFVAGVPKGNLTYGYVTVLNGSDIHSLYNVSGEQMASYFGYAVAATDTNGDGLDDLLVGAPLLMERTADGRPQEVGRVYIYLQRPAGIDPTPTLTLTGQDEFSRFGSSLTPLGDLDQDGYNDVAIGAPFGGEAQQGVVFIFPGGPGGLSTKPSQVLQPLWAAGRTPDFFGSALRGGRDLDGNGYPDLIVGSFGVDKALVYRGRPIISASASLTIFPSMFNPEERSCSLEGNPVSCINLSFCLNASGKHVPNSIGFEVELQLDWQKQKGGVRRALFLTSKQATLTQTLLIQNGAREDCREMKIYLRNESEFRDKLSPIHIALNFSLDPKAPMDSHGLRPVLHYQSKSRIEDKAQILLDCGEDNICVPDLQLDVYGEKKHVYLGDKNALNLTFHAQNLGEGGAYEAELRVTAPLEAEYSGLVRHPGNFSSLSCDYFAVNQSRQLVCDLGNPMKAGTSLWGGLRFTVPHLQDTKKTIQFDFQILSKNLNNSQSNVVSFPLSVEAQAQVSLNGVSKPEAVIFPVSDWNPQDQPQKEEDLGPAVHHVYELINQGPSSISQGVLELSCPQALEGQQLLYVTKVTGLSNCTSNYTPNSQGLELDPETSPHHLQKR
T1 sequence (P11688 899-999 limits assumed): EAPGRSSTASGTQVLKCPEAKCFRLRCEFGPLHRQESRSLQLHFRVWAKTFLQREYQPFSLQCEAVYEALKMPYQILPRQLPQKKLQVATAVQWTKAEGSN
T1 sequence (P09055 21-728 limits assumed): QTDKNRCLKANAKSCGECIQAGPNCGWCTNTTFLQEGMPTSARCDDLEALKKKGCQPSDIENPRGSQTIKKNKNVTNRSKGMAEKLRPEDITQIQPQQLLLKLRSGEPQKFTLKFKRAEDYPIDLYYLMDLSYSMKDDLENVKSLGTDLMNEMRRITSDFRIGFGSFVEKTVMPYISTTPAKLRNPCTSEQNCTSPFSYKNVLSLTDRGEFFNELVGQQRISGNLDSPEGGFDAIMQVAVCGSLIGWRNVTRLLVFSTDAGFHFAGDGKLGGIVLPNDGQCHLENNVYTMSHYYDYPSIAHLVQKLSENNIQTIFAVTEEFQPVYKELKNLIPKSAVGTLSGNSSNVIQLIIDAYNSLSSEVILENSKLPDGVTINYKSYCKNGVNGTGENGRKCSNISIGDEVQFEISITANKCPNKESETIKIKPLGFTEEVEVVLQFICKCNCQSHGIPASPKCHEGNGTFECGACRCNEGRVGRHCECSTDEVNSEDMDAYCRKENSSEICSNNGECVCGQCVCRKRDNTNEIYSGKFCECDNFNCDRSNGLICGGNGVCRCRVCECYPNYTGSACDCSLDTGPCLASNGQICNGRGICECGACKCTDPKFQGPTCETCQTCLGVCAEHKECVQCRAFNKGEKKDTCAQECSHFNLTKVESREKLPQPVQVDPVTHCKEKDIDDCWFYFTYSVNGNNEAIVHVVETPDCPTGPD

B1: A2-3B06: anti-α5β1 antibody, VH SEQ ID NO:42, VL SEQ ID NO:43 (antibody, V domains shown)
VH: QVQLKESGPGLVAPSQSLSITCTISGFSLTTYGVHWVRQPPGKGLEWLVVIWSDGSTTYNSALKSRLNITKDNSKSQVFLKMNSLQTDDTAMYYCVRHGGLLRRDAMDYWGQGTSVTVSS
VL: QIVLTQSPAIMSASLGERVTMTCTASSSVSSNSFHWYQQKPGSSPKLWLYSTSNLASGVPARFSGSGSGTSYSLTISSMEAEDAATYYCHQYLRSPPTFGGGTKLEIK
modifications: A2-3B06 VH Sequence; A2-3B06 VL Sequence
With B1, in assay [1], the “Absorbance 450 nm Mouse α5β1” value stood at 0.049. Also, in the assay with rh-α5β1 (antibody preincubated with rh-α5β1, A2-7A05 immobilized on sensor), the “binding of rh-α5β1 complexed with antibody to A2-7A05 on the sensor” value is recorded as “able to bind”. For the same molecule, in the assay with rh-α5β1 (antibody preincubated with rh-α5β1, A-15B08 immobilized on sensor), the “binding of rh-α5β1 complexed with antibody to A-15B08 on the sensor” value was “not able to bind”. Moreover, in the assay with rh-α5β1 (antibody preincubated with rh-α5β1, C-14D12 immobilized on sensor), the “binding of rh-α5β1 complexed with antibody to C-14D12 on the sensor” value was “not able to bind”. Besides, the “Response (nm)” value in the assay with rh-α5β1 (immobilized mAb A2-7A05) was 0.07 nm; in the assay with rh-α5β1 (immobilized mAb A-15B08), 0.10 nm; in the assay with rh-α5β1 (immobilized mAb C-14D12), 0.12 nm. Besides, the figures for the “% Response” value with rh-α5β1 (immobilized mAb A2-7A05), in the assay with rh-α5β1 (immobilized mAb A-15B08) and with rh-α5β1 (immobilized mAb C-14D12) were 198.65%, 50.05% and 53.28%, respectively. For the same molecule, the epitope group entry with rh-α5β1 (two epitope groups among 6 antibodies) was “second group”. In addition, the “Selected Human α5 Specific” value in assay [2] is reported as “Yes”. Besides, the “Absorbance 450 nm Human α4β1” value with rh-α4β1 was found to be 0.0558.

B2: A2-6C10: hybridoma clone positive on K562 cells (antibody, V domains shown)
VH: B1 VH
VL: B1 VL
With B2, the “Absorbance 450 nm Mouse α5β1” value in assay [1] stood at 0.0551. For the same molecule, the “Selected Human α5 Specific” value in assay [2] was “Yes”. Also, in the assay with rh-α4β1, the “Absorbance 450 nm Human α4β1” value was determined as 0.0609.

B3: A2-9A11: hybridoma clone positive on K562 cells (antibody, V domains shown)
VH: B1 VH
VL: B1 VL
In the case of B3, in assay [1], the “Absorbance 450 nm Mouse α5β1” value stood at 0.0619. Further, the “Selected Human α5 Specific” value in assay [2] is “Yes”. In the assay with rh-α4β1, the “Absorbance 450 nm Human α4β1” value came to 0.0608.

B4: A-15B08-T62A: human IgG4 chimera variant of A-15B08, Thr62 to Ala in CDRH2; VH SEQ ID NO:135, VL SEQ ID NO:26 (antibody, V domains shown)
VH: QVQLKESGPGLVAPSQSLSITCTISGFSLTSYGVHWVRQPPGKGLEWLVVIWSDGSTTYNSALKSRLSISKDNSKSQVFFKMNSLQTDDTAMYYCARHYDYDGDWFAYWGQGTLVTVSA
VL: B1 VL with S28R, F34L, L49I
modifications: human IgG4 constant regions; A-15B08-T62A VH Sequence; A-15B08 VL Sequence
Take B4: the “class of FN binding blocker” value in assay [3] was “strong blockers of FN binding”.

B5: A2-8H11: hybridoma clone positive on K562 cells (antibody, V domains shown)
VH: B1 VH
VL: B1 VL
Turning to B5, the “Absorbance 450 nm Mouse α5β1” value in assay [1] is recorded as 0.0515. For the same molecule, the “Selected Human α5 Specific” value in assay [2] is given as “Yes”. Moreover, the “Absorbance 450 nm Human α4β1” value with rh-α4β1 was 0.0595.
